Data: the supplement of paper PMC9732359
± gives the uncertainty stated by the source.

Test: protein stability index of a GFP-peptide fusion (yeast GPS) (PSI 1-4); higher = more stable; sorted into four equal gates, so the index is relative within each strain
Summary of the method: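 Yeast carrying a pooled library were grown to mid-log phase in leucine-free medium. Each library plasmid expresses Cherry and has a tiled 17-residue yeast protein peptide fused downstream of GFP. Cells were sorted into four equal gates by GFP/Cherry ratio, and plasmids from each gate were PCR-amplified, Illumina-sequenced and assigned to strains by barcode. Summing, across gates, the read frequency times the gate number gave each peptide's protein stability index.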

LKRLAWQYIVIDEAHRI [ISW2]
protein stability index (doa10∆): 1.77 ± 0.077
protein stability index (pdr5∆): 1.78 ± 0.1
protein stability index (san1∆): 2.45 ± 0.077
protein stability index (ubr1∆): 1.13 ± 0.09

LKRNSWPKTRGVAMNPV [RPL2A]
protein stability index (doa10∆): 2.95 ± 0.18
protein stability index (pdr5∆): 3.32 ± 0.2
protein stability index (san1∆): 3.2 ± 0.16
protein stability index (ubr1∆): 2.83 ± 0.085

LKSAIRDEIAKNTELSY [RPN12]
protein stability index (doa10∆): 1.41 ± 0.058
protein stability index (pdr5∆): 2.16 ± 0.1
protein stability index (san1∆): 1.51 ± 0.097
protein stability index (ubr1∆): 2.46 ± 0.056

LKTADNRDRSFQLLEPL [PGD1]
protein stability index (doa10∆): 3.29 ± 0.058
protein stability index (pdr5∆): 3.38 ± 0.086
protein stability index (san1∆): 3.38 ± 0.039
protein stability index (ubr1∆): 3.18 ± 0.074

LKTDGVRAVSITSFGFG [FAS2]
protein stability index (doa10∆): 1.44 ± 0.067
protein stability index (pdr5∆): 2.15 ± 0.099
protein stability index (san1∆): 1.5 ± 0.11
protein stability index (ubr1∆): 1.41 ± 0.05

LKTLVQGPRSYFLDVKC [RPS27A]
protein stability index (doa10∆): 3.08 ± 0.076
protein stability index (pdr5∆): 3.21 ± 0.13
protein stability index (san1∆): 2.72 ± 0.12
protein stability index (ubr1∆): 2.99 ± 0.075

LKTNGKQNNKDFRTRYI [MTW1]
protein stability index (doa10∆): 2.75 ± 0.059
protein stability index (pdr5∆): 2.84 ± 0.065
protein stability index (san1∆): 2.52 ± 0.081
protein stability index (ubr1∆): 2.51 ± 0.059

LKYLSVEEVIKLVRDSF [PRE7]
protein stability index (doa10∆): 2.71 ± 0.13
protein stability index (pdr5∆): 3.27 ± 0.11
protein stability index (san1∆): 2.72 ± 0.12
protein stability index (ubr1∆): 3.08 ± 0.078

LLAVAIAASYHYPEIED [RPP0]
protein stability index (doa10∆): 1.38 ± 0.074
protein stability index (pdr5∆): 2.11 ± 0.11
protein stability index (san1∆): 1.73 ± 0.13
protein stability index (ubr1∆): 1.91 ± 0.08

LLENFANFKTSKKYQLA [RRP6]
protein stability index (doa10∆): 2.09 ± 0.25
protein stability index (pdr5∆): 2.57 ± 0.2
protein stability index (san1∆): 2.27 ± 0.21
protein stability index (ubr1∆): 2.33 ± 0.17

LLENSVDKNFDKLELYV [MTW1]
protein stability index (doa10∆): 3.03 ± 0.052
protein stability index (pdr5∆): 2.64 ± 0.065
protein stability index (san1∆): 3.15 ± 0.065
protein stability index (ubr1∆): 2.97 ± 0.048

LLEQDTSTEKLYKLNDK [PRE9]
protein stability index (doa10∆): 2.99 ± 0.062
protein stability index (pdr5∆): 3.08 ± 0.07
protein stability index (san1∆): 2.91 ± 0.058
protein stability index (ubr1∆): 2.91 ± 0.056

LLFFNFSHSLTTILSFS [NUT1]
protein stability index (doa10∆): 1.41 ± 0.046
protein stability index (pdr5∆): 1.41 ± 0.034
protein stability index (san1∆): 1.46 ± 0.059
protein stability index (ubr1∆): 1.37 ± 0.033

LLGNCYSLRLINKEIFH [SRB8]
protein stability index (doa10∆): 1.79 ± 0.069
protein stability index (pdr5∆): 1.46 ± 0.094
protein stability index (san1∆): 1.46 ± 0.17
protein stability index (ubr1∆): 1.36 ± 0.073

LLHEMTQTYMQMIELNR [GRR1]
protein stability index (doa10∆): 2.18 ± 0.072
protein stability index (pdr5∆): 2.11 ± 0.051
protein stability index (san1∆): 2.2 ± 0.088
protein stability index (ubr1∆): 1.68 ± 0.048

LLNRIPRMYHIGLRQFQ [POP1]
protein stability index (doa10∆): 2.09 ± 0.099
protein stability index (pdr5∆): 1.51 ± 0.077
protein stability index (san1∆): 1.72 ± 0.18
protein stability index (ubr1∆): 1.3 ± 0.11

LLNTDHTLDPSLLESGS [RPO21]
protein stability index (doa10∆): 2.93 ± 0.085
protein stability index (pdr5∆): 2.94 ± 0.099
protein stability index (san1∆): 2.99 ± 0.079
protein stability index (ubr1∆): 3.17 ± 0.059

LLPFVKGNVGFVFTNEP [RPP0]
protein stability index (pdr5∆): 1.77 ± 0.26
protein stability index (ubr1∆): 1.84 ± 0.17

LLPQWDDDQIESLKKSP [ARP9]
protein stability index (doa10∆): 3.17 ± 0.085
protein stability index (pdr5∆): 3.15 ± 0.061
protein stability index (san1∆): 3.1 ± 0.051
protein stability index (ubr1∆): 3.12 ± 0.052

LLQSSIINKLIHIQSKE [POP3]
protein stability index (doa10∆): 2.49 ± 0.069
protein stability index (pdr5∆): 2.5 ± 0.044
protein stability index (san1∆): 1.91 ± 0.058
protein stability index (ubr1∆): 2.28 ± 0.048

LLQVNKTFCEDPFSDVD [GRR1]
protein stability index (doa10∆): 3.13 ± 0.072
protein stability index (pdr5∆): 3.35 ± 0.051
protein stability index (san1∆): 3.32 ± 0.035
protein stability index (ubr1∆): 3.28 ± 0.036

LLRRLKKDVEKELPDKV [SNF2]
protein stability index (pdr5∆): 3.67 ± 0.24
protein stability index (san1∆): 3.36 ± 0.092
protein stability index (ubr1∆): 3.38 ± 0.12

LLSFVLGVVFGRGGSGW [YML031W/NDC1]
protein stability index (doa10∆): 2.33 ± 0.068
protein stability index (pdr5∆): 2.28 ± 0.067
protein stability index (san1∆): 2.31 ± 0.077
protein stability index (ubr1∆): 2.37 ± 0.096

LLSLINSTHLLPLQPIE [SNF12]
protein stability index (doa10∆): 2.34 ± 0.053
protein stability index (pdr5∆): 2.46 ± 0.05
protein stability index (san1∆): 3.04 ± 0.052
protein stability index (ubr1∆): 2.4 ± 0.04

LLTAKHGMTLRESFEDN [RPO21]
protein stability index (doa10∆): 2.96 ± 0.13
protein stability index (pdr5∆): 2.56 ± 0.087
protein stability index (san1∆): 2.6 ± 0.086
protein stability index (ubr1∆): 1.55 ± 0.092

LLTVTPGPRLLYENIAS [RPN10]
protein stability index (doa10∆): 1.86 ± 0.036
protein stability index (pdr5∆): 1.92 ± 0.054
protein stability index (san1∆): 1.95 ± 0.086
protein stability index (ubr1∆): 1.82 ± 0.035

LLVDQKQLNSLRRSGQI [SMD1]
protein stability index (doa10∆): 2.57 ± 0.047
protein stability index (pdr5∆): 2.79 ± 0.054
protein stability index (san1∆): 2.96 ± 0.061
protein stability index (ubr1∆): 2.72 ± 0.051

LLVGLIKTFYWLEQFLS [NUT1]
protein stability index (doa10∆): 2.24 ± 0.12
protein stability index (pdr5∆): 1.11 ± 0.076
protein stability index (san1∆): 1.34 ± 0.14
protein stability index (ubr1∆): 1.24 ± 0.074

LLVQSLNDMVLELKENY [NNF1]
protein stability index (doa10∆): 2.75 ± 0.14
protein stability index (pdr5∆): 1.52 ± 0.1

LLYLRLKNIYVSADDFV [PRP8]
protein stability index (doa10∆): 1.26 ± 0.052
protein stability index (pdr5∆): 1.39 ± 0.054
protein stability index (san1∆): 1.27 ± 0.097
protein stability index (ubr1∆): 1.16 ± 0.046

LMISPKDEETTEKARLI [RRI2]
protein stability index (doa10∆): 2.8 ± 0.15
protein stability index (pdr5∆): 3.27 ± 0.18
protein stability index (ubr1∆): 3.04 ± 0.14

LMKCCHEAYSIIEKITD [RRP45]
protein stability index (doa10∆): 2.56 ± 0.067
protein stability index (pdr5∆): 2.68 ± 0.09
protein stability index (san1∆): 2.56 ± 0.086
protein stability index (ubr1∆): 2.52 ± 0.18

LMMVEKVPDSTYDMVGG [RPT6]
protein stability index (doa10∆): 2.6 ± 0.081
protein stability index (pdr5∆): 2.98 ± 0.071
protein stability index (san1∆): 2.84 ± 0.069
protein stability index (ubr1∆): 3.01 ± 0.068

LMRSCFYLMVSSLSFGP [YJL039C/NUP192]
protein stability index (doa10∆): 1.64 ± 0.04
protein stability index (pdr5∆): 1.48 ± 0.04
protein stability index (san1∆): 1.76 ± 0.075
protein stability index (ubr1∆): 1.19 ± 0.033

LMRTFLYTLAQETEGTN [SIR3]
protein stability index (doa10∆): 2.63 ± 0.12
protein stability index (pdr5∆): 2.63 ± 0.098
protein stability index (ubr1∆): 2.35 ± 0.11

LMYSITFHHHGRQTVLI [SRB2]
protein stability index (doa10∆): 3 ± 0.07
protein stability index (pdr5∆): 3.18 ± 0.071
protein stability index (san1∆): 3.18 ± 0.06
protein stability index (ubr1∆): 3.12 ± 0.039

LNDLVESSFIEIDDTEA [BRR2]
protein stability index (doa10∆): 2.9 ± 0.037
protein stability index (pdr5∆): 2 ± 0.043
protein stability index (san1∆): 2.13 ± 0.069
protein stability index (ubr1∆): 2.25 ± 0.029

LNDMNTEISGLKNVNKR [SMC3]
protein stability index (doa10∆): 3.26 ± 0.064
protein stability index (pdr5∆): 3.27 ± 0.072
protein stability index (san1∆): 3.06 ± 0.058
protein stability index (ubr1∆): 3.12 ± 0.045

LNDRKVLFAAYKVEHPF [RPB11]
protein stability index (doa10∆): 1.72 ± 0.055
protein stability index (pdr5∆): 2.23 ± 0.058
protein stability index (san1∆): 2.03 ± 0.084
protein stability index (ubr1∆): 2.27 ± 0.051

LNDTTEKSKALESEIAS [SMC2]
protein stability index (doa10∆): 3.53 ± 0.19
protein stability index (pdr5∆): 3.34 ± 0.14
protein stability index (san1∆): 3.43 ± 0.086
protein stability index (ubr1∆): 3.18 ± 0.086

LNDVVSFLFSAIPLQQV [SWI1]
protein stability index (doa10∆): 1.83 ± 0.044
protein stability index (pdr5∆): 2.08 ± 0.039
protein stability index (san1∆): 1.94 ± 0.057
protein stability index (ubr1∆): 1.75 ± 0.026

LNECLKTIQINNEKVVQ [YML031W/NDC1]
protein stability index (doa10∆): 1.96 ± 0.12
protein stability index (pdr5∆): 2.27 ± 0.073
protein stability index (san1∆): 1.29 ± 0.16
protein stability index (ubr1∆): 1.11 ± 0.1

LNEKFQELRKKVNPNIM [SMC2]
protein stability index (pdr5∆): 2.61 ± 0.27
protein stability index (san1∆): 2.98 ± 0.2
protein stability index (ubr1∆): 2.81 ± 0.15

LNELETLIKKKQDEKKS [SMC2]
protein stability index (doa10∆): 3.24 ± 0.087
protein stability index (pdr5∆): 3.27 ± 0.092
protein stability index (san1∆): 3.19 ± 0.063
protein stability index (ubr1∆): 2.91 ± 0.055

LNELHPTLPTNHNKTKL [PRP8]
protein stability index (doa10∆): 2.88 ± 0.064
protein stability index (pdr5∆): 3.08 ± 0.062
protein stability index (san1∆): 2.84 ± 0.056
protein stability index (ubr1∆): 2.72 ± 0.039

LNESRSQHKKILEELDF [SMC3]
protein stability index (doa10∆): 3.38 ± 0.12
protein stability index (pdr5∆): 3.26 ± 0.098
protein stability index (san1∆): 3.01 ± 0.069
protein stability index (ubr1∆): 3.06 ± 0.082

LNITTVFSHAQTAVTCE [RPS27A]
protein stability index (doa10∆): 2.38 ± 0.043
protein stability index (pdr5∆): 2.21 ± 0.047
protein stability index (san1∆): 2.08 ± 0.063
protein stability index (ubr1∆): 2.09 ± 0.052

LNLEQVTLNKYCSGNIY [YJL039C/NUP192]
protein stability index (doa10∆): 2.37 ± 0.044
protein stability index (pdr5∆): 2.16 ± 0.048
protein stability index (san1∆): 2.59 ± 0.052
protein stability index (ubr1∆): 2.39 ± 0.046

LNLTGPKVPEDIYKSHL [RPN1]
protein stability index (doa10∆): 2.9 ± 0.15
protein stability index (pdr5∆): 3.11 ± 0.11
protein stability index (san1∆): 2.85 ± 0.1
protein stability index (ubr1∆): 2.9 ± 0.26

LNRFNFQNTNTRSALKL [QCR2]
protein stability index (doa10∆): 2.71 ± 0.076
protein stability index (pdr5∆): 2.91 ± 0.069
protein stability index (san1∆): 2.83 ± 0.075
protein stability index (ubr1∆): 2.62 ± 0.074
